The record followed here is the supplement of paper PMC7877785.

± gives the uncertainty stated by the source.

A short description of the data set: self-splicing fitness, log relative to wild type (ln ratio); higher = more splicing; Tetrahymena group I intron in knt gene, E. coli kanamycin selection, DiMSum; sequences stand for … in CUCUCU…GGAGGGAAAAGUUAUCAGGCAUGCACCUGGUAGCUAGUCUUUAAACCAAUAGAUUGCAUCGGUUUAAAAGGCAAGACCGUCAAAUUGCGGGAAAGGGGUCAACAGCCGUUCAGUACCAAGUCUCAGGGGAAACUUUGAGAUGGCCUUGCAAAGGGUAUGGUAAUAAGCUGACGGACAUGGUCCUAACCACGCAGCCAAGUCCUAAGUCAACAGAUCUUCUGUUGAUAUGGAUGCAGUUCACAGACUAAAUGUCGGUCGGGGAAGAUGUAUUCUUCUCAUAAGAUAUAGUCGGACCUCUCCUUAAUGGGAGCUAGCGGAUGAAGUGAUGCAACACUGGAGCCGCUGGGAACUAAUUUGUAUGCGAAAGUAUAUUGAUUAGUUUUGGAGUACUCGUGGUCG
Summed up:
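Fitness was computed with DiMSum as the error-weighted combination of replicate fold changes, kanamycin versus none, each normalised to wild type. The library randomised all eight intron nucleotides of the P1ex region, with the intron placed in the knt kanamycin-resistance gene on pET-22b(+) in E. coli BL21(DE3). Six replicate transformations were grown overnight at 37°C or 30°C on LB agar with or without 25 μg/mL kanamycin, plus 100 μg/mL carbenicillin, 50 μM IPTG and 0.2% rhamnose. Pooled colonies were amplicon-sequenced on an Illumina HiSeq 2500.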

As to AGUUAGCAAUAUUACGUUUG, the “self-splicing fitness (ln)” value (30 °C) was -3.13 ± 0.24 and the “self-splicing fitness (ln)” value (37 °C) is -1.8 ± 0.29. The matching figures for AGUUAGCAAUAUUACGUUUU: -3.11 ± 0.18 and -1.41 ± 0.15. Consider AUAAAGCAAUAUUACGACAA, for which the “self-splicing fitness (ln)” value runs as follows: (30 °C) -0.556 ± 0.086; (37 °C) 0.621 ± 0.12. The matching figures for AUAAAGCAAUAUUACGACGU: 0.742 ± 0.063 and 0.786 ± 0.074. The matching figures for AUAAAGCAAUAUUACGACUG: -1.14 ± 0.085 and -0.454 ± 0.098. The matching figures for AUAAAGCAAUAUUACGAGCG: -0.041 ± 0.086 and 0.101 ± 0.09. As for AUAAAGCAAUAUUACGCAAU, the “self-splicing fitness (ln)” value reads like this: (30 °C) -0.8 ± 0.074; (37 °C) -0.703 ± 0.11. The matching figures for AUAAAGCAAUAUUACGCAGG: -1.32 ± 0.098 and -0.913 ± 0.14. Take AUAAAGCAAUAUUACGCCAA: the “self-splicing fitness (ln)” value is -0.625 ± 0.15 (30 °C) and -0.34 ± 0.17 (37 °C). The matching figures for AUAAAGCAAUAUUACGCCCC: -0.123 ± 0.16 and 0.0897 ± 0.24. The matching figures for AUAAAGCAAUAUUACGCCCG: -1.01 ± 0.14 and -0.313 ± 0.16. The matching figures for AUAAAGCAAUAUUACGCGAU: -2.45 ± 0.15 and -1.36 ± 0.16.

With AUAAAGCAAUAUUACGCGCU, the “self-splicing fitness (ln)” value is -0.372 ± 0.1 (30 °C) and -0.603 ± 0.12 (37 °C).

With AUAAAGCAAUAUUACGCUUC, the “self-splicing fitness (ln)” value (30 °C) is -3.66 ± 0.37 and the “self-splicing fitness (ln)” value (37 °C) is -2.39 ± 0.32. The matching figures for AUAAAGCAAUAUUACGCUUU: -4.03 ± 0.24 and -1.59 ± 0.23. Regarding AUAAAGCAAUAUUACGGAAG, the “self-splicing fitness (ln)” value is -2.3 ± 0.098 (30 °C) and -0.18 ± 0.11 (37 °C). The matching figures for AUAAAGCAAUAUUACGGAUC: -1.55 ± 0.13 and -0.273 ± 0.15.

Take AUAAAGCAAUAUUACGGUCU: the “self-splicing fitness (ln)” value by setting is: (30 °C) -0.245 ± 0.061; (37 °C) 0.47 ± 0.088. The matching figures for AUAAAGCAAUAUUACGGUUC: -2.17 ± 0.088 and -0.743 ± 0.1.

As to AUAAAGCAAUAUUACGGUUU, the “self-splicing fitness (ln)” value runs as follows: (30 °C) -0.835 ± 0.072; (37 °C) -0.0425 ± 0.098. For AUAAAGCAAUAUUACGUAAG, the “self-splicing fitness (ln)” value runs as follows: (30 °C) -2.08 ± 0.1; (37 °C) -0.84 ± 0.11. The matching figures for AUAAAGCAAUAUUACGUCCA: -0.469 ± 0.098 and 0.194 ± 0.16.

On to AUAAAGCAAUAUUACGUCGC, for which the “self-splicing fitness (ln)” value runs as follows: (30 °C) -2.83 ± 0.25; (37 °C) -1.41 ± 0.19. The matching figures for AUAAAGCAAUAUUACGUGCA: -0.0876 ± 0.067 and 0.348 ± 0.093. Take AUAAAGCAAUAUUACGUGCC: the “self-splicing fitness (ln)” value (30 °C) is -0.00478 ± 0.083 and the “self-splicing fitness (ln)” value (37 °C) is 0.162 ± 0.12. The matching figures for AUACAGCAAUAUUACGACCA: -0.419 ± 0.15 and -0.298 ± 0.17. The matching figures for AUACAGCAAUAUUACGACGU: -0.374 ± 0.068 and 0.174 ± 0.084. Consider AUACAGCAAUAUUACGAGGG, for which the “self-splicing fitness (ln)” value is -3.68 ± 0.2 (30 °C) and -2.21 ± 0.19 (37 °C).

For AUACAGCAAUAUUACGAGGU, the “self-splicing fitness (ln)” value is -3.04 ± 0.11 (30 °C) and -1.84 ± 0.11 (37 °C).

In the case of AUACAGCAAUAUUACGAGUA, the “self-splicing fitness (ln)” value reads like this: (30 °C) -1.76 ± 0.16; (37 °C) -0.461 ± 0.1. In the case of AUACAGCAAUAUUACGAGUG, the “self-splicing fitness (ln)” value is, setting by setting: (30 °C) -2.32 ± 0.073; (37 °C) -1.34 ± 0.093. On to AUACAGCAAUAUUACGCAGG, for which the “self-splicing fitness (ln)” value is, setting by setting: (30 °C) -2.78 ± 0.14; (37 °C) -0.332 ± 0.11. As to AUACAGCAAUAUUACGCAGU, the “self-splicing fitness (ln)” value was -2.88 ± 0.23 (30 °C) and -2.74 ± 0.22 (37 °C).

On to AUACAGCAAUAUUACGCCAG, for which the “self-splicing fitness (ln)” value runs as follows: (30 °C) -1.79 ± 0.14; (37 °C) -2.03 ± 0.2. For AUACAGCAAUAUUACGCGGG, the “self-splicing fitness (ln)” value is -3.46 ± 0.15 (30 °C) and -1.75 ± 0.11 (37 °C). Consider AUACAGCAAUAUUACGCGUC, for which the “self-splicing fitness (ln)” value runs as follows: (30 °C) -3.72 ± 0.14; (37 °C) -2.6 ± 0.13.

With AUACAGCAAUAUUACGGGAA, the “self-splicing fitness (ln)” value by setting is: (30 °C) -2.72 ± 0.17; (37 °C) -1.51 ± 0.13.

On to AUACAGCAAUAUUACGGGCU, for which the “self-splicing fitness (ln)” value was -2.77 ± 0.11 (30 °C) and -1.29 ± 0.12 (37 °C).

As for AUACAGCAAUAUUACGUACA, the “self-splicing fitness (ln)” value runs as follows: (30 °C) -0.262 ± 0.081; (37 °C) -0.215 ± 0.11. The matching figures for AUACAGCAAUAUUACGUAUG: -2.42 ± 0.16 and -2.52 ± 0.18.

As to AUACAGCAAUAUUACGUCGU, the “self-splicing fitness (ln)” value is, setting by setting: (30 °C) -1.3 ± 0.07; (37 °C) -0.0346 ± 0.077.

Consider AUACAGCAAUAUUACGUUUA, for which the “self-splicing fitness (ln)” value is -1.73 ± 0.078 (30 °C) and -1.07 ± 0.084 (37 °C). The matching figures for AUAGAGCAAUAUUACGACCA: -2.34 ± 0.18 and -1.49 ± 0.27.

AUAGAGCAAUAUUACGACGG: the “self-splicing fitness (ln)” value by setting is: (30 °C) -2.52 ± 0.18; (37 °C) -0.742 ± 0.26. The matching figures for AUAGAGCAAUAUUACGAUAA: -1.23 ± 0.16 and -0.812 ± 0.23. On to AUAGAGCAAUAUUACGCACU, for which the “self-splicing fitness (ln)” value is -0.797 ± 0.14 (30 °C) and 0.815 ± 0.14 (37 °C). The matching figures for AUAGAGCAAUAUUACGCAUA: -0.926 ± 0.16 and -0.513 ± 0.26. For AUAGAGCAAUAUUACGCCAA, the “self-splicing fitness (ln)” value by setting is: (30 °C) -2.44 ± 0.24; (37 °C) -0.839 ± 0.3. The matching figures for AUAGAGCAAUAUUACGCGAA: -1.34 ± 0.093 and -1.1 ± 0.11. The matching figures for AUAGAGCAAUAUUACGCGCC: -1.86 ± 0.32 and -0.949 ± 0.28. AUAGAGCAAUAUUACGCGGG: the “self-splicing fitness (ln)” value (30 °C) was -2.17 ± 0.12 and the “self-splicing fitness (ln)” value (37 °C) is -2.33 ± 0.16.

Take AUAGAGCAAUAUUACGCGUG: the “self-splicing fitness (ln)” value (30 °C) is -0.385 ± 0.11 and the “self-splicing fitness (ln)” value (37 °C) was -1.09 ± 0.13. The matching figures for AUAGAGCAAUAUUACGCUAU: -2.49 ± 0.18 and -2.34 ± 0.3.

Take AUAGAGCAAUAUUACGGCAC: the “self-splicing fitness (ln)” value is, setting by setting: (30 °C) -1.75 ± 0.14; (37 °C) -0.686 ± 0.2. The matching figures for AUAGAGCAAUAUUACGGGAA: -3.43 ± 0.26 and -2.46 ± 0.25. The matching figures for AUAGAGCAAUAUUACGGUGC: -1.96 ± 0.15 and -2.21 ± 0.46. The matching figures for AUAGAGCAAUAUUACGUAAU: -0.582 ± 0.1 and 0.244 ± 0.12. Take AUAGAGCAAUAUUACGUAUU: the “self-splicing fitness (ln)” value is -2.46 ± 0.16 (30 °C) and -1.1 ± 0.17 (37 °C).

AUAGAGCAAUAUUACGUCCC: where the note is “30 °C”, the “self-splicing fitness (ln)” value is -2.36 ± 0.48. Turning to AUAGAGCAAUAUUACGUUAG, the “self-splicing fitness (ln)” value was -1.39 ± 0.11 (30 °C) and -1.21 ± 0.16 (37 °C).

With AUAGAGCAAUAUUACGUUCC, the “self-splicing fitness (ln)” value was -2.27 ± 0.22 (30 °C) and -1.53 ± 0.23 (37 °C). The matching figures for AUAUAGCAAUAUUACGACUG: -1.47 ± 0.14 and -1.65 ± 0.21. Take AUAUAGCAAUAUUACGAGGG: where the note is “30 °C”, the “self-splicing fitness (ln)” value is -2.57 ± 0.43. AUAUAGCAAUAUUACGAGUA: the “self-splicing fitness (ln)” value was -2.18 ± 0.2 (30 °C) and -1.04 ± 0.16 (37 °C). The matching figures for AUAUAGCAAUAUUACGAGUG: -2.78 ± 0.19 and -1.8 ± 0.2.

As for AUAUAGCAAUAUUACGAUCG, the “self-splicing fitness (ln)” value (30 °C) is -1.94 ± 0.12 and the “self-splicing fitness (ln)” value (37 °C) was -0.815 ± 0.14. The matching figures for AUAUAGCAAUAUUACGAUUA: -0.958 ± 0.23 and -0.617 ± 0.2. On to AUAUAGCAAUAUUACGCAAG, for which the “self-splicing fitness (ln)” value is -2.34 ± 0.22 (30 °C) and -0.955 ± 0.21 (37 °C). The matching figures for AUAUAGCAAUAUUACGCUCU: -0.66 ± 0.18 and -0.594 ± 0.18. For AUAUAGCAAUAUUACGCUUU, the “self-splicing fitness (ln)” value by setting is: (30 °C) -2.12 ± 0.41; (37 °C) -1.34 ± 0.31. As to AUAUAGCAAUAUUACGGAAC, for the setting “30 °C”, the “self-splicing fitness (ln)” value is -2.89 ± 0.41.

As to AUAUAGCAAUAUUACGGAGU, the “self-splicing fitness (ln)” value runs as follows: (30 °C) -2.29 ± 0.13; (37 °C) -1.82 ± 0.2. Take AUAUAGCAAUAUUACGGCCC: the “self-splicing fitness (ln)” value is -0.72 ± 0.15 (30 °C) and -0.205 ± 0.24 (37 °C). The matching figures for AUAUAGCAAUAUUACGGUGA: -1.72 ± 0.2 and -1.11 ± 0.2. The matching figures for AUAUAGCAAUAUUACGUCUG: -2.35 ± 0.1 and -0.0249 ± 0.12.
